# Reference: patent US20130315910A1 (Xencor, published 2013)
# Substitutions are numbered along the chain they refer to. In names and notes the source's numbering stands.
# T1: human FcγRIIb receptor protein (R&D Systems) (human, UniProt P31994 46-217)
# T1 construct: Bought protein injected over captured antibody in Biacore; also called CD32b
# T1 sequence (looked up): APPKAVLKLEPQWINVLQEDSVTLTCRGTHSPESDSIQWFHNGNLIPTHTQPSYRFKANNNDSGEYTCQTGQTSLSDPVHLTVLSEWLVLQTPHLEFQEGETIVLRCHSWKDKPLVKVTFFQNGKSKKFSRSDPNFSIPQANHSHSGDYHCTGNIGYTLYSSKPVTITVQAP
# T2: human FcγRIIa (131R), His- and GST-tagged (human, UniProt P12318 34-217)
# T2 construct: Expressed in HEK293T cells, purified by nickel chromatography; also called R131 FcγRIIa; not shown: 6xHis and GST tags of the pTT5 vector
# T2 sequence (looked up): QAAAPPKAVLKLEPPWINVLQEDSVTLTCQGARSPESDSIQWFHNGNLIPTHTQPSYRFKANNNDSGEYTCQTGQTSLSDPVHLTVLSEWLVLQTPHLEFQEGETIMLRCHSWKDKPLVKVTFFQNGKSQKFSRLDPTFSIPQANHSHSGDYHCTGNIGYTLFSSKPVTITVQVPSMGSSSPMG
# T3: human FcγRIIa (131H), His- and GST-tagged (human, UniProt P12318 34-217)
# T3 construct: also called H131 FcγRIIa; HIIa; not shown: 6xHis and GST tags of the pTT5 vector
# T3 sequence (looked up): T2 sequence (looked up) with R134H
# T4: mFcγRIIb (Mus musculus, UniProt P08101)
# T4 construct: extracellular region, C-terminal His- and GST-tag; also called mouse FcγRII
# T4 sequence (receptor extracellular region, looked up): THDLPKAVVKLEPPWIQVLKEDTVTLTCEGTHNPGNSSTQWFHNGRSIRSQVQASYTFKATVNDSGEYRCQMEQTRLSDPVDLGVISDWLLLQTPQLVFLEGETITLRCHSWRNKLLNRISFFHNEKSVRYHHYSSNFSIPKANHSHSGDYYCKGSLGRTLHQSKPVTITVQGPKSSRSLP
# T5: mFcγRIV
# T5 construct: also called mouse FcγRIV; not shown: C-terminal His and GST tags (named only on our card)
# T5 chain: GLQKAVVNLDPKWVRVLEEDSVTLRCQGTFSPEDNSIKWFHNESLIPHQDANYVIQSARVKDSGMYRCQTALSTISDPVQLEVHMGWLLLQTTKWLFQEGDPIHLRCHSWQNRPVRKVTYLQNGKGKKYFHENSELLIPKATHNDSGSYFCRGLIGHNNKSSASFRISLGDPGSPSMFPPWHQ
# T6: cynoFcγRIIb (Macaca fascicularis, UniProt A0A140HDP4)
# T6 construct: extracellular region, C-terminal His- and GST-tag; also called cynomolgus monkey FcγRIIb
# T6 sequence (receptor extracellular region): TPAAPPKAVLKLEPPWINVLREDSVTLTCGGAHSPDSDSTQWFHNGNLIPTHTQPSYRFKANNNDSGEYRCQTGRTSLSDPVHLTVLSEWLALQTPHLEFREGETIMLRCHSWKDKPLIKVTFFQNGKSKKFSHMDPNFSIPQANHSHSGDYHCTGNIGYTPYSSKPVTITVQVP
# T7: human FcγRIIb on cells (transfected HEK293T cells; primary human B cells) (human, UniProt P31994 43-310)
# T7 construct: whole, on cells; also called CD32b
# T7 sequence (looked up): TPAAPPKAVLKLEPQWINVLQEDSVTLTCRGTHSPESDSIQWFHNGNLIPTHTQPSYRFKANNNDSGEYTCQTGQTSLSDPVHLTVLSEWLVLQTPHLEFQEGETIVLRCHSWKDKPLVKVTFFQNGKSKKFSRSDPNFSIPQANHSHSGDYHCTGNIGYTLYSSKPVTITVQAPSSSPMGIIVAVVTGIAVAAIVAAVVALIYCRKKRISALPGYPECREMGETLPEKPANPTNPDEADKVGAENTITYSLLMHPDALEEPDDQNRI
# B1: L234W/G236D/S239E/S267E (antibody, human IgG1, kappa)
# heavy: EVQLVESGGGLVKPGGSLKLSCAASGYTFTSYVMHWVRQAPGKGLEWIGYINPYNDGTKYNEKFQGRVTISSDKSISTAYMELSSLRSEDTAMYYCARGTYYYGTRVFDYWGQGTLVTVSSASTKGPSVFPLAPSSKSTSGGTAALGCLVKDYFPEPVTVSWNSGALTSGVHTFPAVLQSSGLYSLSSVVTVPSSSLGTQTYICNVNHKPSNTKVDKKVEPKSCDKTHTCPPCPAPEWLDGPEVFLFPPKPKDTLMISRTPEVTCVVVDVEHEDPEVKFNWYVDGVEVHNAKTKPREEQYNSTYRVVSVLTVLHQDWLNGKEYKCKVSNKALPAPIEKTISKAKGQPREPQVYTLPPSREEMTKNQVSLTCLVKGFYPSDIAVEWESNGQPENNYKTTPPVLDSDGSFFLYSKLTVDKSRWQQGNVFSCSVMHEALHNHYTQKSLSLSPGK
# light: DIVMTQSPATLSLSPGERATLSCRSSKSLQNVNGNTYLYWFQQKPGQSPQLLIYRMSNLNSGVPDRFSGSGSGTEFTLTISSLEPEDFAVYYCMQHLEYPITFGAGTKLEIKRTVAAPSVFIFPPSDEQLKSGTASVVCLLNNFYPREAKVQWKVDNALQSGNSQESVTEQDSKDSTYSLSSTLTLSKADYEKHKVYACEVTHQGLSSPVTKSFNRGEC
# notes: HuAM4G7 anti-CD19 IgG1 (m1) with these Fc substitutions, EU index; copies: 2 + 2
# B2: A330H (antibody, human IgG1, kappa)
# heavy: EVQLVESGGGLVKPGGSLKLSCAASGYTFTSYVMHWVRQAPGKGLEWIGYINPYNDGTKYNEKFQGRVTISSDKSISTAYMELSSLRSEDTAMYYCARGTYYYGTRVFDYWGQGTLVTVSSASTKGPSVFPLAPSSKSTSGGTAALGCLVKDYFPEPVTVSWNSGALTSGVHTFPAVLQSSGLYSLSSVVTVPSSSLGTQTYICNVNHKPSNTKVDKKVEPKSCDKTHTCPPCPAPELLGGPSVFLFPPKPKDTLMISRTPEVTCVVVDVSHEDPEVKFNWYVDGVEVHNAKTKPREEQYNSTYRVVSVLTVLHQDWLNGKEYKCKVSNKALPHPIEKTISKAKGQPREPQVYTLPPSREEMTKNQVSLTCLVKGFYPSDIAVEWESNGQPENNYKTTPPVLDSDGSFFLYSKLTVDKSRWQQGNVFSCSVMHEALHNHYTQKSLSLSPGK
# light: B1 light
# notes: HuAM4G7 anti-CD19 IgG1 (m1) with this Fc substitution, EU index; copies: 2 + 2
# B3: A330D (antibody, human IgG1, kappa)
# heavy: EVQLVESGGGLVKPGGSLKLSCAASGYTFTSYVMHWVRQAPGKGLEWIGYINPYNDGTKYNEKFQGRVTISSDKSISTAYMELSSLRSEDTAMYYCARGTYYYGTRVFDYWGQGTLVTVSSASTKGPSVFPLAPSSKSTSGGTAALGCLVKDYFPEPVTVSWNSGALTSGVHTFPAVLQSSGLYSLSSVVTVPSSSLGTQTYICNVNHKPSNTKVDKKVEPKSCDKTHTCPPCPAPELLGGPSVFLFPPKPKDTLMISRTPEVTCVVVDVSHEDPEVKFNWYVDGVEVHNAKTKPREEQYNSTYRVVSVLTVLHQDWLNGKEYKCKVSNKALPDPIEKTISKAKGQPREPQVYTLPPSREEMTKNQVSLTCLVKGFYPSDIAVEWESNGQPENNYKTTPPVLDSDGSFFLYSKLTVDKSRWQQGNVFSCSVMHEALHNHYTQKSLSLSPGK
# light: B1 light
# notes: as for B2
# B4: G236A/G237A (antibody, human IgG1, kappa)
# heavy: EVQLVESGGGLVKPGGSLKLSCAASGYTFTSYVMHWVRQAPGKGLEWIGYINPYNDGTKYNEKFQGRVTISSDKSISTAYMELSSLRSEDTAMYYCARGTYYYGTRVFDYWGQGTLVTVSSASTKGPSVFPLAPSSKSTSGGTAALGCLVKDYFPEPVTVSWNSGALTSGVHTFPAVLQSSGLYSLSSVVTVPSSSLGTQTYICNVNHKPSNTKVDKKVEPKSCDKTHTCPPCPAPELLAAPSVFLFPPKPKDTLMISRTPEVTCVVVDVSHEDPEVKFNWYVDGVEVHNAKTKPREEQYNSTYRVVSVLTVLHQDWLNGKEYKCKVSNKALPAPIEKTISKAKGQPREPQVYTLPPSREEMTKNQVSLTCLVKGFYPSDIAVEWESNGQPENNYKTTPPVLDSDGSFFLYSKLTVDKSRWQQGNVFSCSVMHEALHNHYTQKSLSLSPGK
# light: B1 light
# notes: as for B1
# B5: anti-CD19 antibody HuAM4G7 IgG1 S267E/H268E (antibody)
# heavy: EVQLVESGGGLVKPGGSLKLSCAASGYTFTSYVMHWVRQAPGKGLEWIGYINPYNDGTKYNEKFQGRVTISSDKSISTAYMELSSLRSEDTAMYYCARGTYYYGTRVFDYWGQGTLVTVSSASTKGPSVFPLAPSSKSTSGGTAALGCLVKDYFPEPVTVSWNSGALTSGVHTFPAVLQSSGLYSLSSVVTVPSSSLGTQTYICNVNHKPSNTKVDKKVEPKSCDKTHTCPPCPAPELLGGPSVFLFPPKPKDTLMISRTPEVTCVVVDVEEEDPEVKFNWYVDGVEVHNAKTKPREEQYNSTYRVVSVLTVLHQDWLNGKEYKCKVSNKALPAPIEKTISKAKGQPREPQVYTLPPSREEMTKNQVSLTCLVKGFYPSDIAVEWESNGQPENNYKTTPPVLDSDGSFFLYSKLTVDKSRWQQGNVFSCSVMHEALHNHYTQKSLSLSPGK
# light: B1 light
# notes: Positions in EU numbering; copies: 2 + 2
# B6: V266M/S267E (antibody, human IgG1, kappa)
# heavy: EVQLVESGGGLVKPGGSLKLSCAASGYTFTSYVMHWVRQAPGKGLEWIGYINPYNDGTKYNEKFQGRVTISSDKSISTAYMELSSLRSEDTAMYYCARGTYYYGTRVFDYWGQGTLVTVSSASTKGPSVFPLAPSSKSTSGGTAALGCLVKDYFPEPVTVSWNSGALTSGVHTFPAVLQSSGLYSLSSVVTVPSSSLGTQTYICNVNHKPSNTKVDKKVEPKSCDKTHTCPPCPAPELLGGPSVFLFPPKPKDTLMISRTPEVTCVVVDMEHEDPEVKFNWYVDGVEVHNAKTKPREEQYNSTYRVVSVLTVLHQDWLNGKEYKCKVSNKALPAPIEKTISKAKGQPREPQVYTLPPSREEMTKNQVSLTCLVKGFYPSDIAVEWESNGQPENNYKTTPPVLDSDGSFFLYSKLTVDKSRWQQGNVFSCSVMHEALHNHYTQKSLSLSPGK
# light: B1 light
# notes: as for B1
# B7: G236S/G237A (antibody, human IgG1, kappa)
# heavy: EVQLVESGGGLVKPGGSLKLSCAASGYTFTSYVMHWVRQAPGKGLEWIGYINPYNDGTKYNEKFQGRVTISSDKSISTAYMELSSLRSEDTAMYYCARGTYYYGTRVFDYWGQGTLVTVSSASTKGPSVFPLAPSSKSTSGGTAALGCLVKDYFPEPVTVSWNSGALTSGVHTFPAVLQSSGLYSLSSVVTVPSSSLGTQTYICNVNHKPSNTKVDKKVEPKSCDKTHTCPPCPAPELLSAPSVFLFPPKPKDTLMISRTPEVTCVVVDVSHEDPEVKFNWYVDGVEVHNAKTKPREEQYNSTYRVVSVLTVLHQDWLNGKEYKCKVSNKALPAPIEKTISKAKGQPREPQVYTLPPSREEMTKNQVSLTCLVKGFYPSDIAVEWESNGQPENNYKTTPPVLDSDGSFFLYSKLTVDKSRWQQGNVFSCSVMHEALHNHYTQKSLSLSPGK
# light: B1 light
# notes: as for B1
# B8: A327L (antibody, human IgG1, kappa)
# heavy: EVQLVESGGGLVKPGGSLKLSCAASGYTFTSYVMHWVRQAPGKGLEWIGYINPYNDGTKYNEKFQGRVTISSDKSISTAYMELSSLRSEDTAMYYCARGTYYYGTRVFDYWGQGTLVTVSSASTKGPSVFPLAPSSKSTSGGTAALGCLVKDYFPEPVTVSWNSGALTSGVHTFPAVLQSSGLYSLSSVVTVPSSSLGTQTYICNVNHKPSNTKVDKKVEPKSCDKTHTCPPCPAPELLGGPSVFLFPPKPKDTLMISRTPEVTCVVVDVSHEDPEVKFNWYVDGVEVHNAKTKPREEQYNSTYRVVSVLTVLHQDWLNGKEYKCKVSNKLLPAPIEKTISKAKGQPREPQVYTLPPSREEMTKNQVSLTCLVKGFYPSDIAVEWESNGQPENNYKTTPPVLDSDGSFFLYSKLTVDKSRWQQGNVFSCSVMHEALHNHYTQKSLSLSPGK
# light: B1 light
# notes: as for B2
# B9: L328E (antibody, human IgG1, kappa)
# heavy: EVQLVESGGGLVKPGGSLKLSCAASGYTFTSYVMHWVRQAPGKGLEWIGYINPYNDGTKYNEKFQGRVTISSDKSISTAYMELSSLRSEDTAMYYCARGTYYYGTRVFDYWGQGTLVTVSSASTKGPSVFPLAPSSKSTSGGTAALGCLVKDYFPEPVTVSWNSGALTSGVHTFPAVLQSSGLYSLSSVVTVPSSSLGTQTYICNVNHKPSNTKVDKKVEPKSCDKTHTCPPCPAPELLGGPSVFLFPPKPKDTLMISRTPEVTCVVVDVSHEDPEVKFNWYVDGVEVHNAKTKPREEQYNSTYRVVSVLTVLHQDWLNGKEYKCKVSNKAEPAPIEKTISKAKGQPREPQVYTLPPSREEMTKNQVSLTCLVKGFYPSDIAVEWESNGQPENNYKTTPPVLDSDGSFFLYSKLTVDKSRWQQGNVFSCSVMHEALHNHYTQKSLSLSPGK
# light: B1 light
# notes: as for B2
# B10: S267E/A327E (antibody, human IgG1, kappa)
# heavy: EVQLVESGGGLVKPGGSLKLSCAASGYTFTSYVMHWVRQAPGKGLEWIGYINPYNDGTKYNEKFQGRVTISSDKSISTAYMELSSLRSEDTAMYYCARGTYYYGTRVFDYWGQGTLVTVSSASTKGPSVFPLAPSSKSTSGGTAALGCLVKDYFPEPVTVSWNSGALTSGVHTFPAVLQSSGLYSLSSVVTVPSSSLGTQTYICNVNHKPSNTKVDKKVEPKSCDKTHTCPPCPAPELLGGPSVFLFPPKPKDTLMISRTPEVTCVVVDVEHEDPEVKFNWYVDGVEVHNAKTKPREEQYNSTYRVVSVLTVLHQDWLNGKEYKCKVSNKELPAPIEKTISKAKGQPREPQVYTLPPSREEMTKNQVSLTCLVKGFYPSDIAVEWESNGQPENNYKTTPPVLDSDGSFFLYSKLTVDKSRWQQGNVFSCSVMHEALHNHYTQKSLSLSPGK
# light: B1 light
# notes: as for B1
# Molecular target: T1, human FcγRIIb receptor protein (R&D …)
# Test: SPR
# 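Throughout, for Fold vs WT IgG1 (off-rate): fold improvement over WT IgG1 so higher means slower dissociation than WT.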
Fold vs WT IgG1 [fold],Kd [nM],binding result,Binder
11.4,129,–,B1
–,–,no binding,B2
–,–,no binding,B3
0.0578,25400,–,B4
40.6,36.1,–,B5
29.2,50.2,–,B6
0.0797,18400,–,B7
–,–,no binding,B8
–,–,no binding,B9
30.9,47.5,–,B10

# Molecular target: T8, human FcγRI receptor protein (R&D Systems) (human, UniProt P12314 16-288)
# T8 construct: also called soluble FcγRI; solFcγRI
# Test: SPR
# T8 sequence (P12314 16-288 limits assumed): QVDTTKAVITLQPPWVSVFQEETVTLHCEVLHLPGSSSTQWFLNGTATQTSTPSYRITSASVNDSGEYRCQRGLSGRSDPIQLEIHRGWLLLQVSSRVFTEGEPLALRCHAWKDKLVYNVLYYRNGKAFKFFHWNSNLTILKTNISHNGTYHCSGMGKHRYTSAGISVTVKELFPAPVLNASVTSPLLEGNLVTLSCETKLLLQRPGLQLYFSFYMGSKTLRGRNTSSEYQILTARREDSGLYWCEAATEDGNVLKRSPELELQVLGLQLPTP
Fold vs WT IgG1 [fold],Kd [nM],Binder
3.52,0.0935,B5
1.98,0.166,B6
2.3,0.143,B10

# Molecular target: T2, human FcγRIIa (131R), His- and …
# Test: SPR
Fold vs WT IgG1 [fold],Kd [nM],Binder
5.69,151,B1
41.7,20.6,B5
30.7,28,B6
29.3,29.3,B10

# Molecular target: T3, human FcγRIIa (131H), His- and …
# Test: SPR
Fold vs WT IgG1 [fold],Kd [nM],Binder
0.765,845,B5
10.9,59.2,B6
2.66,243,B10

# Molecular target: T9, human FcγRIIIa (158V), His- and GST-tagged (human, UniProt P08637 17-208)
# T9 construct: also called V158 FcγRIIIa; VIIIa; not shown: 6xHis and GST tags of the pTT5 vector
# Test: SPR
# T9 sequence (P08637 17-208 F176V): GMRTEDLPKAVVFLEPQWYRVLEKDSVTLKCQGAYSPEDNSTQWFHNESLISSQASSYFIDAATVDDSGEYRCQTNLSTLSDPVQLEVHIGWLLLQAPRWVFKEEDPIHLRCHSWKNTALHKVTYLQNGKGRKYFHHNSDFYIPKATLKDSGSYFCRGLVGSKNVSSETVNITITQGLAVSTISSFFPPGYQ
Fold vs WT IgG1 [fold],Kd [nM],Binder
3.15,60.8,B5
0.0448,4270,B6
0.00894,21400,B10

# Molecular target: T4, mFcγRIIb
# Test: SPR
Fold vs WT IgG1 (Kd) [fold],Fold vs WT IgG1 (off-rate) [fold],Binder
0.029,–,B1
0.013,–,B2
2.63,–,B3
0.016,–,B9
–,2.8,B10

# Molecular target: T5, mFcγRIV
# Test: SPR
row,Fold vs WT IgG1 (off-rate) [fold],Binder
1,1.04,B10

# Molecular target: T6, cynoFcγRIIb
# Test: SPR
row,Fold vs WT IgG1 (off-rate) [fold],Binder
1,1.03,B10

# Molecular target: T10, cynoFcγRIIIa (Macaca fascicularis, UniProt Q8SPW2)
# T10 construct: extracellular region, C-terminal His- and GST-tag; also called cynomolgus monkey FcγRIIIa
# Test: SPR
# T10 sequence (Q8SPW2 17-208): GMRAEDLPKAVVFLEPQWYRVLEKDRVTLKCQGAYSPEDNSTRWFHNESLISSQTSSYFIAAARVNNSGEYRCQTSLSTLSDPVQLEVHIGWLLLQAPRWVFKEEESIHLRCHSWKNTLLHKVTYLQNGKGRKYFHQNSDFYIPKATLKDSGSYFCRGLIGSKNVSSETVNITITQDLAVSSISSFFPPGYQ
row,Fold vs WT IgG1 (off-rate) [fold],Binder
1,0.465,B10

# Molecular target: T4, mFcγRIIb
# Test: SPR, Kd
# Protocol: (§1) Variants were screened for receptor affinity using Biacore™ technology, also referred to as Biacore herein, a surface plasmon resonance (SPR) based technology for studying biomolecular interactions in real time. SPR measurements were performed using a Biacore 3000 instrument (Biacore, Piscataway, N.J.). A protein A/G (Pierce Biotechnology) CM5 biosensor chip (Biacore) was generated using a standard primary amine coupling protocol. All measurements were performed using HBS-EP buffer (10 mM HEPES pH 7.4, 0.15 M NaCl, 3 mM EDTA, 0.005% vol/vol surfactant P20, Biacore). Antibodies at 20 nM or 50 nM in HBS-EP buffer were immobilized on the protein A/G surface and FcγRs were injected. After each cycle, the surface was regenerated by injecting glycine buffer (10 mM, pH 1.5). Data were processed by zeroing time and response before the injection of FcγR and by subtracting appropriate nonspecific signals (response of reference channel and injection of running buffer). Kinetic analyses were performed by global fitting of binding data with a 1:1 Langmuir binding model using BIAevaluation software (Biacore).
# (§2) Variant antibodies were tested for their affinity to mouse or cynologous monkey FcγRs using Biacore SPR as described above. Specifically, antibodies were first immobilized on a protein A/G chip to high density, and then followed by injections of the extracellular domain of the mouse or cynologous monkey FcγR of interest. Both association and dissociation phases were tracked in real time using the Biacore technology.
row,binding result,Binder
1,no binding,B4
2,no binding,B7
3,no binding,B8

# Molecular target: T6, cynoFcγRIIb
# Test: SPR, Kd
# Protocol: as §1, §2
row,binding result,Binder
1,no binding,B1
2,no binding,B2
3,no binding,B3
4,no binding,B4
5,no binding,B7
6,no binding,B8
7,no binding,B9

# Molecular target: T7, human FcγRIIb on cells (transfected …)
# Test: flow cytometry on FcγRIIb-transfected 293T cells [middle left panel]
# Protocol: In order to validate the Biacore data and evaluate receptor binding of the variants on the cell surface, binding of select antibodies to cells expressing FcγRIIb was measured. […] HEK293T cells in DMEM with 10% FBS were transfected with human FcγRIIb cDNA in pCMV6 expression vector (Origene Technologies, Rockville, Md.), cultured for 3 days, harvested, washed twice in PBS, resuspended in PBS with 0.1% BSA (PBS/BSA), and aliquoted at 2×10^5 cells per well into 96-well microtiter plates. Fc variant antibodies were serially diluted in PBS/BSA then added to the cells and incubated with mixing for 1 h at room temperature. After extensive washing with PBS/BSA, phycoerythrin (PE)-labeled anti-human-Fab-specific goat F(ab′)2 fragment was added for detection. Cells were incubated for 30 min at room temperature, washed, and resuspended in PBS/BSA. Binding was evaluated using a FACSCanto II flow cytometer (BD Biosciences, San Jose, Calif.), and the mean fluorescence intensity (MFI) was plotted as a function of antibody concentration using Graph Pad Prism software (GraphPad Software, San Diego, Calif.) from which half-maximal binding (EC50) values were determined by sigmoidal dose response modeling.
row,EC50 (read off the curve) [ng/mL],Binder
1,~10,B5
2,~10,B6
3,~10,B10
